# Measurements from US20080159989A1.
# Biological target: Nodal (mouse) (UniProt P43021)
"% of beating EB (Cripto-/- ES cells transfected with Cerberus-S, EBs treated with recombinant Cripto) (% of beating EB)","% of beating EB (Cripto-/- ES cells transfected with Cerberus, EBs treated with recombinant Cripto) (% of beating EB)",Substance
8.3,,Cerberus-Short (CerS)
,10.3,Cerberus
